What was measured:
[1] = tested on: DLD-1 cells; assay: Annexin-APC and 7-AAD apoptosis analysis by flow cytometer; type: cell-based; settings: 1,000 nM, 24 or 48 hours; FIG. 1B
Procedure: In addition, DLD-1 cells, a colorectal cancer cell line with KRAS gene mutation, were seeded at a density of 1×10^5 cells per well in a 6-well plates, cultured for 1 day at 37° C. and the recombinant protein from <Preparation Example 1> was then added to each well at a concentration of 1,000 nM, and the cells were further cultured for either 24 or 48 hours. After washing the cultured cells twice with cold PBD, the cells were stained using Annexin-APC and 7-AAD apoptosis kit (Biolegend, US) according to the manufacturer's instructions, and apoptosis was analyzed using a flow cytometer (CytoFLEX, Beckmancoulter) (FIG. 1B).

[2] = tested on: KRAS wild-type or mutant colorectal, pancreatic, lung cancer and ovarian cancer cells (HT-29, DLD-1, HCT-116, SW620, Bx-pc3, L3.6pl, AsPC-1, H226, A549 …); assay: SRB (sulforhodamine B) cell growth assay in cancer cell lines; type: cell-based; settings: 3.2, 16, 80, 400, 2000 or 10,000 nM, 72 hours; compared to negative control NIH3T3 cells; FIG. 1A
Procedure: To investigate the anticancer activity of the recombinant stabilized galectin-9 protein having the amino acid sequence of SEQ ID NO: 1, cell growth and apoptosis were observed after treatment of the recombinant protein in cancer cell lines having a KRAS wild type or KRAS gene mutation.
Specifically, to investigate the anticancer activity of the recombinant stabilized galectin-9 protein having the amino acid sequence of SEQ ID NO: 1, the protein was treated on cancer cell lines with KRAS wild-type or KRAS gene mutation, and the following cell lines were used: HT-29 for KRAS wild-type pancreatic cancer, DLD-1, HCT-116, and SW620 for KRAS gene-mutated colon cancer, Bx-pc3 for KRAS wild-type pancreatic cancer, L3.6pl and AsPC-1 for KRAS gene-mutated pancreatic cancer, H226 for KRAS wild-type lung cancer, A549 for KRAS gene-mutated lung cancer, SKOV3ip1 for KRAS wild-type ovarian cancer, and SKOV3 for KRAS gene-mutated ovarian cancer, and the cells were seeded at 5×10^3 cells per well in a 96-well plate and cultured at 37° C. for one day, and then the recombinant protein was treated with concentrations of 3.2, 16, 80, 400, 2000, or 10,000 nM per well, and cultured for 72 hours. After 72 hours of incubation, the cell growth was confirmed using the SRB (sulforhodamine B) assay kit (Abcam, US) according to the manufacturer's instructions. […]

[3] = tested on: KRAS gene mutant pancreatic cancer (MIA PaCa-2) mouse model; assay: pancreatic cancer tissue size (MRI) in pancreatic cancer-induced mouse model; type: in vivo, mice; settings: 50 days, FIG. 5; for size of pancreatic cancer tissue compared to the control group: intraperitoneal
Procedure: (§1) To investigate the anticancer activity of the recombinant stabilized galectin-9 protein having the amino acid sequence SEQ ID NO: 1, KRAS gene mutant pancreatic cancer cell line MIA PaCa-2 cells were transplanted and grown for two weeks to form pancreatic tumor tissue subcutaneously in mice, and the mice were then administered with the recombinant protein, and changes in body weight were monitored.
(§2) Specifically, the experiments were conducted in accordance with the Guide for the Care and Use of Laboratory Animals (NRC), and the mice were managed accordingly. After collecting mice with an average pancreatic cancer size of 200 nm 3, they were randomly classified into 5 group.
(§3) The experimental groups were classified into five groups (5 mice per group) as follows: control group (PBS), low-dose recombinant stabilized galectin-9 protein administration group (seal-9 0.5 mg/kg), high-dose recombinant stabilized galectin-9 protein administration group (seal-9 5 mg/kg), gemcitabine group (Gemcitabine 50 mg/kg), and combination of seal-9 and gemcitabine (seal-9 5 mg/kg+Gemcitabine 50 mg/kg). The mice were administered with seal-9 the given concentrations twice a week and/or gemcitabine once a week by intraperitoneal injection for 50 days, while monitoring changes in body weight (FIG. 4).
To investigate the anticancer activity of the recombinant stabilized galectin-9 protein having the amino acid sequence of SEQ ID NO: 1, the KRAS gene mutant pancreatic cancer (MIA PaCa-2) mouse model was established by using the same method described in Example <2-1> above, and seal-9 and/or gemcitabine were administered into the mice for 50 days and the change in the size of the pancreatic cancer tissue was evaluated using magnetic resonance imaging (MRI) (FIG. 5).

[4] = tested on: KRAS gene mutated pancreatic cancer (MIA PaCa-2) mouse model; assay: survival rate in pancreatic cancer-induced mouse model; type: in vivo, mice; settings: 50 days, tumor size of 1700 mm3 or more considered as time of death, FIG. 6
Procedure: as §1, §2, §3
In this case, a pancreatic cancer tissue size of 1700 mm3 or more was considered as the time of death.

[5] = body weight changes in pancreatic cancer-induced mouse model; type: in vivo, mice; settings: intraperitoneal, 50 days, FIG. 4
Procedure: as §1, §2, §3

[6] = tested on: DLD-1 cells; assay: colony formation assay; type: cell-based; settings: 0, 50, 100, 250, 500, 1000 nM, 10 days, 3% v/v Matrigel; FIG. 2
Procedure: To investigate the anti-cancer activity of the recombinant stabilized galectin-9 protein having the amino acid sequence of SEQ ID NO: 1, the proliferation of cancer cells by colony formation assay was analyzed by treating KRAS mutant colorectal cancer cell lines with the recombinant protein.
Specifically, DLD-1 cells, a colorectal cancer cell line with KRAS gene mutation, were seeded in 6-well plates at 5×10^3 cells per well in a medium containing 3% v/v Matrigel, and then treated with the recombinant protein from <Preparation Example 1> at concentrations of 0, 50, 100, 250, 500, 1000 nM and incubated for 10 days. Then, after washing with phosphate-buffered saline, colonies were stained with a solution of 0.05% crystal violet, 1% formaldehyde, and 1% methanol in phosphate-buffered saline for 20 minutes at room temperature. The plate was then washing with distilled water and dried at room temperature for 16 hours. The number of colonies was measured by capturing images of the stained and dried plates and analyzing the images (FIG. 2).

[7] = high-dose, seal-9 5 mg/kg twice a week
[8] = low-dose, seal-9 0.5 mg/kg twice a week

B1: seal-9: recombinant stabilized galectin-9 protein of SEQ ID NO: 1; linker region deleted, CCRD positions 1 to 10 deleted, Ala at position 13 substituted with Pro (protein)
chain: MAFSGSQAPYLSPAVPFSGTIQGGLQDGLQITVNGTVLSSSGTRFAVNFQTGFSGNDIAFHFNPRFEDGGYVVCNTRQNGSWGPEERKTHMPFQKGMPFDLCFLVQSSDFKVMVNGILFVQYFHRVPFHRVDTISVNGSVQLSYISFQHPPYPMPFITTILGGLYPSKSILLSGTVLPSAQRFHINLCSGNHIAFHLNPRFDENAVVRNTQIDNSWGSEERSLPRKMPFVRGQSFSVWILCEAHCLKVAVDGQHLFEYYHRLRNLPTINRLEVGGDIQLTHVQT
modifications: sGal-9
notes: linker region deleted, CCRD positions 1 to 10 deleted, Ala at position 13 substituted with Pro
apoptosis [1]: induced apoptosis
cell growth [2]: inhibited cell growth
size of pancreatic cancer tissue compared to the control group [3, 7]: decreased significantly
size of pancreatic cancer tissue compared to the control group [3, 8]: decreased significantly
size of pancreatic cancer tissue, seal-9 compared with conventional chemotherapy ([3]; seal-9 0.5 or 5 mg/kg vs gemcitabine 50 mg/kg): superior effect at lower doses than conventional chemotherapy
survival rate ([4]; high-dose, seal-9 5 mg/kg): superior survival rates
survival rate ([4]; low-dose, seal-9 0.5 mg/kg): superior survival rates
changes in body weight [5, 7]: no significant changes in body weight
changes in body weight [5, 8]: no significant changes in body weight
colony formation ability / proliferation of cancer cells [6]: inhibited the proliferation of cancer cells in a concentration-dependent manner

Reference: patent publication US20230414712A1, “PHARMACEUTICAL COMPOSITION FOR PREVENTING OR TREATING CANCER COMPRISING RECOMBINANT STABILIZED GALECTIN 9 PROTEIN” (GBIOLOGICS INC., priority 2020, published 2023)
